Substitutions are numbered along the chain they refer to.
How the values were obtained:
human C4b (human) [1] = molecular target: T1, human C4b (human) (UniProt P0C0L5)
T1 sequence: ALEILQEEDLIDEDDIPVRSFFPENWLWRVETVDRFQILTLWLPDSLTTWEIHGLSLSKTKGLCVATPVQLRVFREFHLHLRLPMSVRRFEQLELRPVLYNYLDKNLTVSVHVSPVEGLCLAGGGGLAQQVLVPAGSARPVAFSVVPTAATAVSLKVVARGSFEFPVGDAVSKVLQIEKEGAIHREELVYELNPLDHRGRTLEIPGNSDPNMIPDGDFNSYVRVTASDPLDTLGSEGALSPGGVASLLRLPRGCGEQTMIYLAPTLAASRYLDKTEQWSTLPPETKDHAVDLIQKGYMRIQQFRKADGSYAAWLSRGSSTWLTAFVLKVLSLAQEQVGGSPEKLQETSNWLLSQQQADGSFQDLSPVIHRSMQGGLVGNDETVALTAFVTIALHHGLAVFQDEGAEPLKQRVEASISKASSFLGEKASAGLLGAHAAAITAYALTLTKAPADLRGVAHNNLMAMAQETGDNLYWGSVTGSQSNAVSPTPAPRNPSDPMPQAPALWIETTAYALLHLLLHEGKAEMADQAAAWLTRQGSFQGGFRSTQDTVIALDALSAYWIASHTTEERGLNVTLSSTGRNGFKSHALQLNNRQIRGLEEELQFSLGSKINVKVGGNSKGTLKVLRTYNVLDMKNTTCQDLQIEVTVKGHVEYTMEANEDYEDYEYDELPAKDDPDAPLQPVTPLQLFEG

[2] = molecular target: soluble human C3b (human) (UniProt P01024)
human C4b (human) [3] = molecular target: T2, human C4b (human) (UniProt P0C0L4)
T2 sequence: T1 sequence with T151A, G317D, L364P, S365C, I368L, H369D, S420N, A451V, R454L, A530S

Substance | C4b Screen Ref Fold (fold of CFI-HSA wild type) (human C4b (human) [1]) | iC3b Screen Ref Fold (fold of CFI-HSA wild type) [2] | C4c EC50 (human C4b (human) [3]) [nM] | C4b Screen Ref Fold (fold vs CFI-HSA wild type) (human C4b (human) [1]) | iC3b Screen Ref Fold (fold vs CFI-HSA wild type) [2] | C4c EC50 (nM) (human C4b (human) [3])
CFI-HSA variant Y408L; E457G; N531G; P558S (enzyme) | 5.27 | 0.86 | 26.6 |  |  | 
CFI-HSA variant Y20F; E38A; S250A; D425A; Y408L; N531G; E457G; E461Q; R462K; F464Y (enzyme) |  |  |  | 6.31 | 0.77 | 106
CFI-HSA variant Y408L; N531G; E457G; E461Q; R462K; F464Y (enzyme) |  |  |  | 5.37 | 0.46 | 82.1
CFI-HSA variant Y408L; N531G; E457G; E461Q; R462K (enzyme) |  |  |  | 6.07 | 0.64 | 60
CFI-HSA variant Y408L; E457G; N531G; P535G; K534Q (enzyme) | 4.68 | 1.2 | 21.1 |  |  | 
CFI-HSA variant Y553H; P558S (enzyme) | 2.14 | 0.63 | 122 |  |  | 
CFI-HSA variant Y408L; N531G; D425R; E416A (enzyme) | 1.41 | 2.15 |  |  |  | 60.6
CFI-HSA variant K488E (enzyme) | 0.78 | 1.07 | > 1000 |  |  | 
CFI-HSA variant Y408L; E457G; N531G; N422K (enzyme) | 3.66 | 0.95 | 48.4 |  |  | 
CFI-HSA variant Y408L; N531G; K534Q (enzyme) | 5.13 | 1.03 | 64.3 |  |  | 
CFI-HSA variant N531G; P535G; P558S (enzyme) | 3.82 | 0.95 | 136 |  |  | 
CFI-HSA variant Y408L; E457G; N531G; P535G; D425K (enzyme) | 5.01 | 1.12 | 32.2 |  |  | 
CFI-HSA variant Y408L; N531G; E457G (enzyme) |  |  |  | 6.16 | 0.63 | 94.4
CFI-HSA variant N531G; K534Q (enzyme) | 5.23 | 1.39 | 43.5 |  |  | 
CFI-HSA variant Y408L; E457G; E461Q; R462K; F464Y (enzyme) |  |  |  | 5.78 | 0.86 | 163
CFI-HSA variant E457G; K534Q (enzyme) | 5.24 | 1.15 | 55.2 |  |  | 
CFI-HSA variant E457G; N531G; E461Q; R462K; F464Y (enzyme) |  |  |  | 5.97 | 0.83 | 37.9
CFI-HSA variant E457G; E461Q-R462K; F464Y (enzyme) |  |  |  | 5.5 | 0.69 | 65.2
CFI-HSA variant S552G; Y553H (enzyme) | 2.53 | 0.26 | 74.5 |  |  | 
CFI-HSA variant E457G; P535G; P558S (enzyme) | 3.18 | 0.81 | 186 |  |  | 
CFI-HSA variant Y408L; N531G; N422K (enzyme) | 3.78 | 1.94 | 83.7 |  |  | 
CFI-HSA variant E457G; N531G; E416A (enzyme) | 5.02 | 2.66 |  |  |  | 5.4

Substance | C4b Screen Ref Fold (fold of CFI-HSA wild type) (human C4b (human) [1]) | iC3b Screen Ref Fold (fold of CFI-HSA wild type) [2] | C4c EC50 (human C4b (human) [3]) [nM] | C4b Screen Ref Fold (fold vs CFI-HSA wild type) (human C4b (human) [1]) | iC3b Screen Ref Fold (fold vs CFI-HSA wild type) [2] | C4c EC50 (nM) (human C4b (human) [3])
CFI-HSA variant S552G; Y553H; F559L (enzyme) | 2.42 | 0.23 | 224 |  |  | 
CFI-HSA variant Y408L; N531G; E461Q (enzyme) |  |  |  | 6.68 | 1.21 | 51.5
CFI-HSA variant Y408L; E457G; E416A (enzyme) | 2.11 | 2.51 |  |  |  | 170
CFI-HSA variant Y408F; N531G (enzyme) |  |  |  | 5.78 | 1.24 | 75.7
CFI-HSA variant Y408L; N531G; E457G; R462K; F464Y (enzyme) |  |  |  | 6.16 | 0.84 | 45.8
CFI-HSA variant E487A (enzyme) | 1.47 | 1.38 | 104 |  |  | 
CFI-HSA variant Y408L; N531G; P535G; D425K (enzyme) | 2.94 | 1.38 | 65.4 |  |  | 
CFI-HSA variant Y408L; E457G; D425R; E416A (enzyme) | 2.03 | 3.02 |  |  |  | 181
CFI-HSA variant S552G; Y553H; F559L; V565I (enzyme) | 3.1 | 0.27 | 83.6 |  |  | 
CFI-HSA variant R321A (enzyme) |  |  |  | 0.22 | 0.55 | 897
CFI-HSA variant Y408L; E457G; D425K (enzyme) | 5.47 | 1.21 | 102 |  |  | 
CFI-HSA variant S552G; Y553H; P558S (enzyme) | 2.04 | 0.44 | 139 |  |  | 
CFI-HSA variant F464G (enzyme) | 0.24 | 0.01 | > 1000 |  |  | 
CFI-HSA variant Y408L; E457G; N531G; E416A (enzyme) | 4.66 | 2.15 |  |  |  | 34.8
CFI-HSA variant Y408L; N531G; E457G; E461Q (enzyme) |  |  |  | 4.63 | 0.39 | 84.8
CFI-HSA variant Y408L; E457G; N531G; P535G (enzyme) | 5.28 | 1.06 | 50.5 |  |  | 
CFI-HSA variant N531G; D425R; E416A (enzyme) | 2.64 | 3.03 |  |  |  | 81.4
CFI-HSA variant E457G; P558S (enzyme) | 4.98 | 1.04 | 65.9 |  |  | 
CFI-HSA variant N531G; E457G; E461Q; F464Y (enzyme) |  |  |  | 6.8 | 0.27 | 44.1
CFI-HSA variant Y408L; N531G; E457G; E461Q; F464Y (enzyme) |  |  |  | 6.12 | 0.51 | 79.9
CFI-HSA variant N531G; P535G; K534Q (enzyme) | 4.47 | 0.93 | 118 |  |  | 
CFI-HSA variant N531G; P535G (enzyme) | 4.19 | 1.28 | 126 |  |  | 
